# T1: TNF-beta (human, UniProt P01374 35-205)
# T1 construct: also called TNFβ; Tumour Necrosis Factor-beta
# T1 sequence (looked up): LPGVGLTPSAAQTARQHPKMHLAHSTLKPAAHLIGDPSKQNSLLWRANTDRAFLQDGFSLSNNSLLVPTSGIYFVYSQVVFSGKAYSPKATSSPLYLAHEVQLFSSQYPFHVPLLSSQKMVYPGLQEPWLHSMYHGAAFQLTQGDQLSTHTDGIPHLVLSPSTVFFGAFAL
# T2: Fas ligand (human, UniProt P48023 134-281, limits assumed)
# T2 sequence (looked up): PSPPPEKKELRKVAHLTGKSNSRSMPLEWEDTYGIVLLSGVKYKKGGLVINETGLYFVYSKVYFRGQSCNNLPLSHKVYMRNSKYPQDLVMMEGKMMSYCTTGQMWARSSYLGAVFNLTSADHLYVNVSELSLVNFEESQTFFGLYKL
# B1: I028A06 (scFv)
# scFv: QVQLVESGGGLIQPGGSLRLSCAASGFSFGSYAMSWIRQAPGKGLEWVSTSTGRGGSTYYADSVKGRFTISRDNAKNSLYLQMNSLRAEDAAVYYCARGGDYDILTGLYYYGMDVWGKGTMVTVSSGGGGSGGGGSGGGGSSYVLTQPPSVSGTPGQRVTISCSGGRSNIGSNTVKWYQQLPGTAPKLLIYGNDQRPSGVPDRFSGSKSGTSASLAITGVQAEDEADYYCQSYDSSLRGSRVFGTGTKVTVLG
# B2: I031F02 (scFv)
# scFv: QVQLVQSGAEVRKPGSSVKVSCKASGGSFSSHVFSWVRQAPGQGLEWVGGITPKFATPNYAQKFQHRVTITADELTRTVFMDLSGLRSEDTAVYYCARGYDSSAFRAFDIWGQGTMVTVSSGGGGSGGGGSGGGGSAQSVLTQPPSVSGAPGQRVTISCTGSSSNIGAGYDVQWYQQLPGTAPKLLIHGNNNRPSGVPDRFSGSKSGTSASLAITGLQDEDEADYYCQSYDSSLSFSGYVFGTGTKVTVLG
# B3: I031F09 (scFv)
# scFv: QVQLVQSGAEVKKPGASVKVSCTVSGDSFSRHGISWVRQAPGQGLEWMGWISVYNGDTKYAQKVQGRVTMTTDTSTNTVYMELRRLRSDDTAVYYCARDEGRDLLTGYYWPNFFDSWGRGTLVTVSSGGGGSGGGGSGGGGSALSYVLTQPPSASGTPGQRVTISCSGSRPNIGGNTVNWYQQLPGAAPKLLIYSNSQRPSGVPDRFSGSKYGTSASLAISGLQSDDEADYYCAAWDDSLTGPVFGGGTKLTVLG
# B4: I031G11 (scFv)
# scFv: QVQLVQSGAEVKKPGASVKVSCTVSGDSFSRHGISWVRQAPGQGLEWMGWISVYNGDTKYAQKVQGRVTMTTDTSTNTVYMELRRLRSDDTAVYYCARDEGRDLLTGYYWPNFFDSWGRGTLVTVSSGGGGSGGGGSGGGGSALSYVLTQPPSVSGTPGQKVTISCSGSRPNIGGNTVNWYQQLPGAAPKLLIYSNSQRPSGVPDRFSGSKYGTSASLAISGLQSDDEADYYCAAWDDSLTGPVFGGGTKLTVLG
# B5: I050B11 (scFv)
# scFv: QVQLVQSGVEVKKPGASVKVSCKASGYTFSNHGISWVRQAPGQGLEWVGWISGHDDSTKYAQKFQGRVTMTADTSTSTAYIELRSLKSDDTAVYYCARPFYDTLTSYVFQYFDHWGQGTMVTVSSGGGGSGGGGSGGGGSALETTLTQSPDTLSLSPGERATLSCRASQSVTRGWVAWYQQKPGQAPRLLMYGTSRRATGVPDRFSGSESGTDFTLTISRLEPEDFAVYYCQQYATSPRTFGQGTRLEIKR
# B6: I012A06 (scFv)
# scFv: QVQLQESGPGVVKPSQTLSLTCTVSGVSISSDSYYWSWIRQPAGKGPEWIGRIYPTGSTNYNPSLKSRVTISVDTSKNQFSLQLTSVTAADTAVYYCARGRWDYDLLTGEHLGYYFDYWGRGTLVTVSSGGGGSGGGGSGGGGSALSSELTQDPAVSVALGQTVRITCQGDTLRNYYASWYQQKPGQAPVLVIHSRNNRPSGIPDRFSGSSSGTTASLTITGSQAEDEADYYCNSRDSSGNVIFGGGTKLTVLG
# B7: I050A12 (scFv)
# scFv: EVQLVQSGAEVKKPGSSVKVSCKASGDTFSHYAINWVRQAPGQGLEWMGGIIPTFNAVKYAQKFQGRATITADGSTSTAYMELNSLRSEDTAVYYCATAPYDLLTHYFHYFDYWGQGTMVTVSSGGGGSGGGGSGGGGSALSSELTQDPAVSVTLGQTVRITCQGDSLRSYYPSWYQQKPGQAPVLVIYPKNIRPSGIPDRFSGSSSGNTASLTITGAQAEDEADYYCNSRASSGNHYVFATGTKLTVLG
# B8: I008C02 (scFv)
# scFv: AVQLQESGPGLVKPSETLSLTCSVSGASMTTNKFYWSWIRQPPGKGLEWIGNINYSKSTNYNPSLKSRITISVDTSKNQLSLKLNSVTAADTAVYYCARHVRDYDILTGYYRGHYFDYWGQGTMVTVSSGGGGSGGGGSGGGGSQSVLTQPASVSGSPGQSITISCTGTSSDVGGYNYVSWYQQHPGKAPKLMIYEGSKRPSGVSNRFSGSKSGNTASLTISGLQAEDEADYYCSSYTTRSTRVFGGGTKLTVLG
# B9: I031C03 (scFv)
# scFv: QMQLVQSGAEVRKPGSSVKVSCKASGGSFSSHVFSWVRQAPGQGLEWVGGITPKFATPNYAQKFQHRVTITADELTRTVFMDLSGLRSEDTAVYYCARGYDSSAFRAFDIWGQGTLVTVSSGGGGSGGGGSGGGGSAQSVLTQPPSVSAAPGQKVTISCSGSSSNIGNNYVSWYQQFPGTAPKLLIYDNNNRPSGVPDRFSGSKSGTSATLGITGLQTGDEADYYCGTWDRSLSVVVFGGGTKVTVLG
# B10: I031C07 (scFv)
# scFv: EVQLVQSGAEVKKPGSSVKVSCRASGGSFIDGSINWLRQAPGQGLEWVGGTIPLANRANYAQKFRDRVTITADELTAIVFLELTSLRSDDTALYYCARSSPPRWYDALTGDSSYHSAMDVWGQGTMVTVSSGGGGSGGGGSGGGGSAQSALTQPPSASGSPGQSVTISCSGTSSDIGDSNSVSWYQQHPGKAPKLLIYEVTKRPSGVPDRFAGSRSDNTASLTVSGLQTEDEADYYCSSSAARNHLVFGGGTKVTVLG
# B11: I031G08 (scFv)
# scFv: QVQLVQSGAEVKKPGSSVKVSCRASGGSFIDDSINWLRQAPGQGLEWVGGTIPLANRANYAQKFRDRATITADELTATVFLELTSLRSDDTALYYCARSSPPKWYDALTGHSSYHSAMDVWGRGTLVTVSSGGGGSGGGGSGGGGSAQSVLTQPPSASGTPGQRVTISCSGTNSNIGGNTVNWYQQLPGTAPRLLIYSNNQRPSGVPDRFSGSKSGTSASLAISGLQSEDEADYYCAARDDRLNAHVVFGGGTKVTVLG
# B12: I051C04 (scFv)
# scFv: QVQLQQSGAEVKKPGSSVKVSCRTSGGTFSNYGLSWVRQAPGQGLEWMGGVIPISSTIKYGQKFQDRLTIAADDLTNTTFMELSSLRPEDTAVYYCARAATTSQKHNKYAYYFYGMDVWGQGTMVTVSSGGGGSGGGGSGGGGSAQSALTQPASVSGSPGQSITISCTGTSSDVGGYNYVSWYQQHPGKAPKLMIYEVSNRPSGVSNRFSGSKSGNTASLTISGLQAEDEADYYCSSYTSSSTLVFGGGTKVTVLG
# notes: also called 1051C04
# Tests used:
# [1] = biological target: T3, membrane-bound B Lymphocyte Stimulator on U937 plasma membrane preparations (human, UniProt Q9Y275 1-285); assay: phage ELISA
# T3 construct: Natural protein in plasma membrane fractions of the human cell line U937 coated on ELISA plates; also called U937 plasma membranes; U937 membranes
# TNF-alpha = biological target: T4, TNF-alpha (human, UniProt P01375 77-233); assay: phage ELISA
# T4 construct: also called TNFα; TNF-α
# TNF-beta = biological target: T1, TNF-beta; assay: phage ELISA
# Fas ligand = biological target: T2, Fas ligand; assay: phage ELISA
# TRAIL = biological target: T5, TRAIL (human, UniProt P50591 114-281); assay: phage ELISA
# T5 construct: also called TNF-related apoptosis inducing ligand
# [2] = biological target: T6, B Lymphocyte Stimulator, soluble form (human) (human, UniProt Q9Y275 134-285, biotinylated with NHS-biotin where used as biotinylated B Lymphocyte Stimulator); assay: phage competition ELISA
# T6 construct: Coated on plastic, captured on streptavidin plates, amine-coupled to a CM5 chip or free in solution, depending on the assay; also called BLyS; immobilized B Lymphocyte Stimulator
# [3] = biological target: T7, biotinylated B Lymphocyte Stimulator, soluble form (human, UniProt Q9Y275 134-285, biotinylated with NHS-biotin, molar ratio 20:1 biotin:protein); assay: phage scFv, receptor binding inhibition on IM9 cells
# T7 construct: also called bio-B Lymphocyte Stimulator; free B Lymphocyte Stimulator
# Method: Fifty-five μl of each appropriate phage supernatant was added to each well and the final volume in each well was 65 μl. Plates were then incubated at room temperature for 30 minutes.
# Plates were washed three times in PBST and three times in PBS, tapped dry and 50 μl of streptavidin-Delfia (Wallac) was added to each well at 1:1000 dilution in the Manufacturer's assay buffer. The plates were then incubated at room temperature for 1 hour and washed six times in Delfia wash solution (Wallac). After tapping the plates dry, 100 μl per well of Delfia enhancement solution (Wallac) was added. The plates were gently tapped to encourage micelle formation, incubated at room temperature for 10 minutes, and fluorescence read on a Wallac 1420 workstation at […].
# T4 sequence (P01375 77-233 limits assumed): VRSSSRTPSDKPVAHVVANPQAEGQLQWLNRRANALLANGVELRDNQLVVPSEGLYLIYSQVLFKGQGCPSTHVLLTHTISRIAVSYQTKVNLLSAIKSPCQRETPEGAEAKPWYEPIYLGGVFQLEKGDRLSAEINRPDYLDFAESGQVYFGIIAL
# T5 sequence (P50591 114-281 limits assumed): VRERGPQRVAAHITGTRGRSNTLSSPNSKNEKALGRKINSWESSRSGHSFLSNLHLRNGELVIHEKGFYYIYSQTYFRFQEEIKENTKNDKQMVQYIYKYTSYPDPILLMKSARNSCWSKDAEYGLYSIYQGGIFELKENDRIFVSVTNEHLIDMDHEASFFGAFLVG
Binder,binding result [1],binding result (TNF-alpha),binding result (TNF-beta),binding result (Fas ligand),binding result (TRAIL),binding result [2],binding result [3]
B1,binds,no binding,no binding,no binding,no binding,binds,
B2,binds,no binding,no binding,no binding,no binding,binds,
B3,binds,no binding,no binding,no binding,no binding,binds,
B4,binds,no binding,no binding,no binding,no binding,binds,
B5,binds,no binding,no binding,no binding,no binding,binds,
B6,binds,no binding,no binding,no binding,no binding,binds,
B7,binds,no binding,no binding,no binding,no binding,binds,
B8,,,,,,,binds
B9,binds,no binding,no binding,no binding,no binding,binds,
B10,binds,no binding,no binding,no binding,no binding,binds,
B11,binds,no binding,no binding,no binding,no binding,binds,
B12,binds,no binding,no binding,no binding,no binding,binds,
